The DeepSol protein solubility set

Experiment: soluble on expression in E. coli; label from the status in PepcDB or PDB records

Sequence | soluble on expression in E. coli
MLQINQMFSVQLSLGEQTWESEGSSIKKAQQAVANKALTESTLPKPVQKPPKSNVNNNPGSITPTVELNGLAMKRGEPAIYRPLDPKPFPNYRANYNFRGMYNQRYHCPVPKIFYVQLTVGNNEFFGEGKTRQAARHNAAMKALQALQNEPIPERSPQNGESGKDMDDDKDANKSEISLVFEIALKRNMPVSFEVIKESGPPHMKSFVTRVSVGEFSAEGEGNSKKLSKKRAATTVLQELKKLPPLPVVEKPKLFFKKRPKTIVKAGPEYGQGMNPISRLAQIQQAKKEKEPDYVLLSERGMPRRREFVMQVKVGNEVATGTGPNKKIAKKNAAEAMLLQLGYKASTNLQDQLEKTGENKGWSGPKPGFPEPTNNTPKGILHLSPDVYQEMEASRHKVISGTTLGYLSPKDMNQPSSSFFSISPTSNSSATIARELLMNGTSSTAEAIGLKGSSPTPPCSPVQPSKQLEYLARIQGFQAALSALKQFSEQGLDPIDGAMNIEKGSLEKQAKHLREKADNNQAPPGSIAQDCKKSNSAV | soluble
MGKLKWFSGGKERSNQAENIITDLLDDLKTDLDNESLKKVLENYLEELKQKSASVPLILSRMNLDISKAIRNDGVTLSDYQSKKLKELTSISNIRYGY | soluble
EIQMTQTTSSLSASLGDRVTISCRASQDISNFLNWYQQKPDGTVKLLIYYTSTLHSGVPSRFSGSGSGTDYSLTISNLEQEDIATYFCQQGKTLPPTFGGGTKLEIKRADAAPTVSIFPPSSEQLTSGGASVVCFLNNFYPKEINVKWKIDGSERQNGVLDSWTEQDSKDSTYSMSSTLTLTKDEYERHNSYTCEATHKTSTSPIVKSFNRNEC | soluble
MGSDKIHHHHHHMNKIAPAEIASMLNDWYLAIKKHEVEESSRLFEEVKPLLDDMEEDQEVLAYFSLLELRHKVLLHEARGQGFQHEEPSHMNATSDMLKYYFFLFEGMYEAYKNNYDIAIGLYKDAEQYLDNIPDPIEKAEFHLKVGKLYYKLGQNIVSLNHTRQAVKTFREETDYKKKLASALITMSGNFTEMSQFEEAEAYLDEAIRITSELEDHFFEAQLLHNFGLLHAQSGKSEEAVSKLEEALQNDEYARSAYYYHSAYLLIRELFKIKKKEQALSYYQDVKEKLTAEPNRICEAKIDILYAIYAEGGHAETFHLCKQHMDDLLSEKEYDSVRELSILAGERYRELELYKEAAHFFYEALQIEELIKRTEVI | not soluble
MGSDKIHHHHHHMIDLKQYEFWFLVGSQYLYGLETLKKVEQQASKIVDSLNDDPIFPSKIVLKPVLKSSSEITEIFEKANADPKCAGVIVWMHTFSPSKMWIRGLSINKKPLLHLHTQYNREIPWDTIDMDYMNLNQSAHGDREHGFIHARMRLPRKVVVGHWEEKEVREKIAKWMRVACAIQDGRMGQIVRFGDNMREVASTEGDKVEAQIKLGWSINTWGVGELAERVKAVPEREVEELLKEYREKYIMPEDEYSLKAIREQAKIEIALREFLKEKNAVGFTTTFEDLHDLPQLPGLAVQRLMEEGYGFGAEGDWKAAGLVRAIKVMGTSLPGGTSFMEDYTYHLTPGNELVLGAHMLEVCPTIAKEKPRIEVHPLSIGGKADPARLVFDGQEGPAVNASIVDMGNRFRLVVNKVLSVPIERKMPKLPTARVLWKPLPDFKRATTAWILAGGSHHTAFSTAIDVEYLIDWAEALEIEYVVIDENLDLEDFKKELRWNELYWGLLKR | not soluble
MAHHHHHHMTEYEEKERKTSLAALRRFVKHCGPTRFTFITRIPLSRNTNQVNGTLLLENGDLTVCAQDMKANIADIREDIASFSVPQHQDFIRAFEEAKNMLKNELAALQEHKSILMVQYEMARP | not soluble
VICHGDFAPYNVALNGNQTVGIFDFDTAHPAPRLWDIAYAVYCWAPFKTNEYDALGDLNSQSARAKLFCDSYGLSNAEREKL | not soluble
MAHHHHHHMFTKFLSRVKAMPPRSGDWANKLGPVALMGCSVGAHMSSTKLLNHFYTSSRDCDMYAELTFHEPGPVECPPETVIFFPVIQCGEMLDEKGEPSEATKDDWYLAMTESTTELLEKGYVPVSVGGDGSATLAMVEAYKRLFRSSEVVLIHCSARPSLEKAEQPIRVLLEKDLLKGVVEIGNRCVSSGDRKIRKQHKVMYMDMQAIYAKGLFCIRDIRNDYPVFLSIDADVLDPAFAPGVESPVPGGFSTRDLLHIMTGIRGPKVAGIDIHGYHPSLDMCRSDGVGLTQMALTKVLKESIVKAYTISTQTAEEGLERVRLMQRQGTLSDNPYPDH | not soluble
MGSDKIHHHHHHMLINRNIVALFALPFMASATASELSIGAGAAYNESPYRGYNENTKAIPLISYEGDTFYVRQTTLGFILSQSEKNELSLTASWMPLEFDPTDNDDYAMQQLDKRDSTAMAGVAWYHHERWGTVKASAAADVLDNSNGWVGELSVFHKMQIGRLSLTPALGVLYYDENFSDYYYGISESESRRSGLASYSAQDAWVPYVSLTAKYPIGEHVVLMASAGYSELPEEITDSPMIDRNESFTFVTGVSWRF | not soluble
CTRAVYIGPDHMVVTGRTMDWKEDIMSNIYVFPRGIQRAGYNKENAVKWTSKYGSVIATGYDIGTCDGMNEKGLVASLLFLPESVFDRPGDTRPVMGISIWTQYVLDNFATVHEAVEELKKESFRIDAPHMPNGSASTLHLAITDETGNTAVLEYLDGNLSIHEGKEFQVMTNSPRYDYQLAINDYWKEVGGLQMLPGTNRSSDRFVRASFYIHAIPQTPDAKIAVPSVLSVMRNVSVPFGITTPDKPHISSTRWRSVSDQKNKIYYFESVMTPNLFWLDLKKIDFSPKAGIKKLPLTNGKIY | not soluble
MQEKTMKQMQQEVDDYISQFKEGYFSPLAMLARLTEELGELAREVNHYYGEKSKKATEQEKTVEEELGDLLFVLICFANSLGIDLQAAHDRVMDKFRTRDRDRWTRKEEGS | not soluble
YLSKYRNETGRSPSFLVNIDSSLKSLAHVDVIYPVGDPIFIHIYERGKERRYKPIEPLLKDDEFEFMDAILDIIMSRASDYPPAENEEEQEKNIEDVYKKTVS | soluble
AAEGERAEPLRPSQSGARPCRAVGNMHFSIPETESRSGDSGGSAYVAYNIHVNGVLHCRVRYSQLLGLHEQLRKEYGANVLPAFPPKKLFSLTPAEVEQRREQLEKYMQAVRQDPLLGSSETFNSFLRRAQQETQQVPTEEVSLEVLLSNGQKVLVNVLTSDQTEDVLEAVAAKLDLPDDLIGYFSLFLVREKEDGAFSFVRKLQEFELPYVSVTSLRSQEYKIVLRKSYWDSAYDDDVMENRVGLNLLYAQTVSDIERGWILVTKEQHRQLKSLQEKVSKKEFLRLAQTLRHYGYLRFDACVADFPEKDCPVVVSAGNSELSLQLRLPGQQLREGSFRVTRMRCWRVTSSVPLPSGSTSSPGRGRGEVRLELAFEYLMSKDRLQWVTITSPQAIMMSICLQSMVDELMVKKSGGSIRKMLRRRVGGTLRRSDSQQAVKSPPLLESPDATRESMVKLSSKLSAVSLRGIGSPSTDASASDVHGNFAFEGIGDEDL | soluble
MKTPRLPIAIQQAVMRRLRENLAQANLKLDRHYPEPKLVYTQRGTSAGTAWLESYEIRLNPVLLLENIDTFIAEVVPHELTHLLVWKHFGRKAPHGKEWKWMMESVLGVPARRTHQFALQSVRRNTFPYHCQCQQHQLTVRRHNRVVRGEAVYRCVHCGEPLVAGLEHHHHHH | not soluble
MGSDKIHHHHHHMRRLFTSESVTEGHPDKIADQISDAILDAMLEQDPRSRVAVETLVTTGLVIIAGEVTTRAYVEIPDIARKTILEIGYTRAKYGFDGETCGVLTSIHSQSPDIALGVDKALEVKTGEEVADEFEALGAGDQGIMFGYATNETPEYMPLPITLAHKLAMRLAEVRKNGTLPFLRPDGKTQVTIEYEDDKPVRVDTVLISTQHDPDISQADLREAIIEHVINPVIPEQYRDDKMKILVNPTGRFVLGGPMADTGLTGRKIIVDTYGGWVPHGGGAFSGKDPTKVDRSAHYMARYVAKNVVAAGLADKFLIQLSYAIGVAKPVSIMIDTYGTAKVDEDKLLKVITELFDFRPGAIIKKLNLLRPIYRKTAAYGHFGRNEEEFTWEKLDMVDELKRAFNM | not soluble
KSGKEAGSQIMKFEVQDASPTIATELNLVTGEQVYYIKRLRFIEDNAAQLEETWMSVARFPDLTVSHMQKSKFSYIENECGIKIIGTFETFSPTFPTPEIASILRISPRDPILKIQTQAVDSNSIPLDYSLLYSNIFEFQVKYFFPR | not soluble
MKFGKEIAKKNQIIYRYIILKIQSFEWPANTRIFSERQLEIRFNSSRSQIRSVLATLLNKNIIRYTKNTPGYFVCKDVGFSFFHKTQDNLKVKYAKLSTLIKKLLSQDDASVFANIDSTVHLDKFKGIEAKFFDENKKHFLNVCFFAKDDILNILDENNLQQQFFREFAYNGIAIEKRHCVTSVDKESGCLVMYDMYYDDNDNFVVASKSNFLNPELKVINA | soluble
MEIKRILVSRTDKIGDLVLSIPSFFMLKKMYPNAELVVIVRKYNVDIVKNLPYIDRIVIIDEYSKAELLEKIAYFKADVFIALYNDSYIASLARASKAKIKIGPISKLSSFFTYNKGVLQKRSLSLKNEGQYNLDLVTKLDRKRFAILYELNTKLEHHHHHH | soluble
LAQEKNYDLPEGVMVYVIEGPFFFGAVETFQSALANTHTDPKVLIIRMRWVPFIDVTGLQAMEEIILNLQKRGVRVLLSEANPLVDAKLRKMGIVQLIGEQNYYKEFSQALDVCRINDSDRKSQPPFEVAKPLASVTQ | not soluble
HDTRKIIAKQLGPHTYLVSGRMEIDDVNERFGLSLPESDDYLTVAGFILNSHQNIPQANEVVEIAPYTFTILRSSSTKIELVKMSIDD | not soluble
SPFDTGPELESQIRNQYGVDVHVVPVLDTLNEAETLDRVAMQAARTIGPLVDSNAIIGVAWGATLSAVSRHLTRKMTHDSIVVQLNGAGNMQTTGITYASDIMRRFGSAYGARVEQFPVPAFFDHASTKTAMWNERSVQRILDLQARMSIAIFGVGSVDSDYPSHVYAGGYLDEHDLTMLAADDVVGDVATVFFRSDGSSDGITLNERSTGPSHEQLRQVRRRICVVSGASKINGLQGALAAGLATDLILDEASARRLVSFNGHS | soluble
MFRLEDFNFHNKTVFLRVDLNSPMKDGKIISDARFKAVLPTIRYLIESGAKVVIGTHQGKPYSEDYTTTEEHARVLSELLDQHVEYIEDIFGRYAREKIKELKSGEVAILENLRFSAEEVKNKPIEECEKTFLVKKLSKVIDYVVNDAFATAHRSQPSLVGFARIKPMIMGFLMEKEIEALMRAYYSKDSPKIYVLGGAKVEDSLKVVENVLRRERADLVLTGGLVANVFTLAKGFDLGRKNVEFMKKKGLLDYVKHAEEILDEFYPYIRTPVDFAVDYKGERVEIDLLSENRGLLHQYQIMDIGKRTAEKYREILMKARIIVANGPMGVFEREEFAIGTVEVFKAIADSPAFSVLGGGHSIASIQKYGITGITHISTGGGAMLSFFAGEELPVLRALQISYEKFKEVVK | soluble
VKNFEWKTIFNWSKNNSMVESLPEGIDKIQIGSGVYNVKSYAEVGKPYGAIYAKTFKRDAEGYILCQLDGSPKEGQDYEYLGCVQADWRGGWNNVFRLGNFSFSVMFDFQKGGKFFSQTSIQSSVDGQSVKSLEGRDADFFSRKILGESDEERYGFMRPQNANTPTANGQIYPDWGRPKGVVLPNCRYDEDVEGLAGQQVLGYCTPERYWMHYTSRDISRFIYDASYVKLREITVSYDLPKKWLRKTPFQTFRVAAVGRNIATLFANTPHGLDPQATSTTGNAQGFERGFNLPSATYGFDIKVSF | not soluble
